Biological target: rabbit skeletal muscle actin, filamentous (F-actin) (rabbit (Oryctolagus cuniculus), UniProt P68135 1-377)
Assay: co-sedimentation; 3 µM ABD with F-actin from 0 to 140 µM in F-buffer (10 mM Tris pH 7.5, 150 mM NaCl, 0.5 mM ATP, 2 mM MgCl2, 1 mM DTT), 30 min at 23–24 °C, pelleted at 100,000 x g; unbound ABD in the supernatant quantified on Coomassie gels; fit to Y=X/(Kd+X)
Details: both partners purified

B1: WT β-III-spectrin ABD (amino acids 1–284), pE-SUMO construct (domain or fragment)
chain: MSSTLSPTDFDSLEIQGQYSDINNRWDLPDSDWDNDSSSARLFERSRIKALADEREAVQKKTFTKWVNSHLARVTCRVGDLYSDLRDGRNLLRLLEVLSGEILPKPTKGRMRIHCLENVDKALQFLKEQKVHLENMGSHDIVDGNHRLTLGLVWTIILRFQIQDISVETEDNKEKKSAKDALLLWCQMKTAGYPNVNVHNFTTSWRDGLAFNAIVHKHRPDLLDFESLKKCNAHYNLQNAFNLAEKELGLTKLLDPEDVNVDQPDEKSIITYVATYYHYFSKMK
notes: also called WT ABD; pE-SUMO-ABD WT; source: E. coli BL21(DE3)pLysS, purified (Ni-NTA, Ulp1 cleavage, second Ni-NTA, Sephadex S100 gel filtration)
Kd: 75 µM

Reference: paper PMC5676748, “Structural basis for high-affinity actin binding revealed by a β-III-spectrin SCA5 missense mutation” (Nature Communications, 2017)
